Experimental findings from the Immune Epitope Database (IEDB) are described below.

One experiment addresses HLA-A*02:17. Description: IEDB peptide-MHC binding, purified MHC/competitive/radioactivity; filed as Kd, often an IC50 or EC50 that approximates it; ≥ and ≤ were set here for values at or beyond the usual limits of such assays.
For the next experiment, the target named is HLA-B*35:01. The description is as above. The settings on record: source organism: Dengue virus 3 Singapore/8120/1995.
The target of another experiment is HLA-A*32:01. Described as above. The following applies: source organism: Dengue virus 3 Singapore/8120/1995.
The target of experiment [1] is HLA-A*02:01. The description is as above.
In a further experiment the target is HLA-A*68:02. The experiment is described as above.
Another experiment has as its target HLA-A*02:03. Described as above.
Another experiment deals with HLA-A*02:06. Described as above.
The next experiment concerns the target HLA-A*02:02. The experiment is described as above.
Experiment [2] deals with HLA-B*08:01. Briefly: IEDB peptide-MHC binding, purified MHC/direct/fluorescence; filed as Kd, often an IC50 or EC50 that approximates it; ≥ and ≤ were set here for values at or beyond the usual limits of such assays.
In the next experiment the target is HLA-B*08:02. Described as above.
In experiment [3] the target is HLA-B*08:01. Briefly: IEDB peptide-MHC binding, purified MHC/competitive/radioactivity; filed as Kd, often an IC50 or EC50 that approximates it; ≥ and ≤ were set here for values at or beyond the usual limits of such assays.
For experiment [4], the target named is HLA-B*15:01. Described as above. The following applies: source organism: Dengue virus 3 Sri Lanka/1266/2000.
The target of experiment [5] is HLA-B*15:01. Description: IEDB peptide-MHC binding, purified MHC/competitive/fluorescence; filed as Kd, often an IC50 or EC50 that approximates it; ≥ and ≤ were set here for values at or beyond the usual limits of such assays. The following applies: source organism: Human herpesvirus 5 strain Towne.
The next experiment deals with HLA-B*57:01. The experiment is described as above. The settings on record: source organism: Human herpesvirus 5 strain Towne.
A further experiment has as its target HLA-B*18:01. The description is as above. The following applies: source organism: Human herpesvirus 5 strain Towne.
In a further experiment the target is HLA-B*39:01. The description is as above. The settings on record: source organism: Human herpesvirus 5 strain Towne.
The next experiment has as its target HLA-B*51:01. The experiment is described as above. The settings on record: source organism: Human herpesvirus 5 strain Towne.
Experiment [6] addresses HLA-A*01:01. Briefly: IEDB peptide-MHC binding, purified MHC/competitive/radioactivity; filed as Kd, often an IC50 or EC50 that approximates it; ≥ and ≤ were set here for values at or beyond the usual limits of such assays. The settings on record: source organism: Dengue virus 1 Brazil/97-11/1997.
The target of a further experiment is HLA-B*27:05. Description: IEDB peptide-MHC binding, purified MHC/direct/fluorescence; filed as Kd, often an IC50 or EC50 that approximates it; ≥ and ≤ were set here for values at or beyond the usual limits of such assays.
Another experiment deals with HLA-B*58:01. Described as above.
The target of experiment [7] is HLA-B*15:01. The description is as above.
For the next experiment, the target named is HLA-A*11:01. Described as above.
Experiment [8] deals with HLA-A*01:01. The experiment is described as above.
The next experiment deals with HLA-B*40:01. The experiment is described as above.
The target in a further experiment is HLA-A*69:01. The description is as above.
For experiment [9], the target named is HLA-A*02:01. Described as above.
The target of another experiment is HLA-A*31:01. The description is as above.
The next experiment addresses HLA-B*07:02. Described as above.
The next experiment concerns the target HLA-B*44:02. The description is as above.
In another experiment the target is HLA-A*03:01. The description is as above.
The target of another experiment is HLA-A*24:03. Described as above.
In a further experiment the target is HLA-A*26:01. Described as above.
[10] abbreviates: source organism: Dengue virus 3 China/80-2/1980.
Setting [11] is: source organism: Dengue virus 2 Jamaica/1409/1983.
[12] abbreviates: source organism: Mycobacterium tuberculosis C.
[13] abbreviates: source organism: Dengue virus 1 Singapore/S275/1990.
Setting [14] is: source organism: Dengue virus 1 Brazil/97-11/1997.
Where [15] appears, read: source organism: Dengue virus 3 Sri Lanka/1266/2000.
[16] abbreviates: source organism: Vibrio parahaemolyticus.
Setting [17] is: source organism: Vibrio vulnificus.
[18] abbreviates: source organism: Dengue virus 3 Martinique/1243/1999.
Where [19] appears, read: source organism: Giardia lamblia ATCC 50803.
[20] abbreviates: source organism: Trypanosoma cruzi.
[21] abbreviates: source organism: Dengue virus 4 Philippines/H241/1956.

In the case of MLWMADVPL, the equilibrium dissociation constant (Kd) came out at 2.72 nM with HLA-A*02:17 (setting [10]), 658 nM in the experiment with HLA-B*35:01, 29.1 nM in the experiment with HLA-A*32:01 and 1.16 nM with HLA-A*02:01 [1] (setting [10]).
As to DLMCHATFTM, the Kd with HLA-A*02:17 (setting [11]) is ≥ 70400 nM; in the experiment with HLA-A*02:01 [1] (setting [11]), 209 nM.
For the sequence LLLLVAHYA, the figures for the Kd with HLA-A*02:17 (setting [11]) and in the experiment with HLA-A*02:01 [1] (setting [11]) were 7930 nM and 51.9 nM, respectively.
For ELADKVTKL, the Kd with HLA-A*68:02 (source organism: Homo sapiens) is 3.18 nM; with HLA-A*02:03 (source organism: Homo sapiens) it was 114 nM; in the experiment with HLA-A*02:06 (source organism: Homo sapiens) it was ≥ 38800 nM; with HLA-A*02:01 [1] (source organism: Homo sapiens), 2510 nM; with HLA-A*02:02 (source organism: Homo sapiens), 33.2 nM.
YLRRRQKAL: the Kd with HLA-B*08:01 [2] (setting [12]) turned out to be 10 nM; with HLA-B*08:02 (setting [12]) it was 1310 nM.
For the sequence KLVMAFIAFL, the Kd with HLA-A*02:17 (setting [13]) was determined as 22.4 nM; with HLA-A*02:06 (setting [14]) it was 11.5 nM; with HLA-A*02:01 [1] (setting [13]) it was 28.9 nM.
Regarding LMMILPAAL, the Kd was 18.1 nM with HLA-B*08:01 [3] (setting [15]), 13.6 nM in the experiment with HLA-B*15:01 [4], 78.4 nM with HLA-A*02:17 (setting [15]) and 15.3 nM with HLA-A*02:03 (setting [15]).
On to YSKVKLLGL, for which the equilibrium dissociation constant (Kd) stood at 52.5 nM with HLA-B*08:01 [2] (source organism: Orthohantavirus dobravaense) and 512 nM with HLA-B*08:02 (source organism: Kurkino virus).
Take LPLKMLNIPSINVH: the Kd with HLA-B*15:01 [5], in the experiment with HLA-B*57:01, with HLA-B*18:01, in the experiment with HLA-B*39:01 and with HLA-B*51:01 was ≥ 20000 nM in each case.
With LTAAVLMLV, the Kd with HLA-A*02:17 (setting [13]) was determined as 561 nM; with HLA-A*68:02 (setting [14]) it was 11.3 nM; with HLA-A*02:03 (setting [14]) it was 11.8 nM; with HLA-A*01:01 [6], 17700 nM; in the experiment with HLA-A*02:06 (setting [14]), 10.6 nM; with HLA-A*02:01 [1] (setting [13]) it was 1.14 nM.
As for ILLRKGHVF, the Kd is ≥ 20000 nM with HLA-B*27:05 (setting [16]); ≥ 20000 nM with HLA-B*58:01 (setting [16]); 107 nM with HLA-B*08:01 [2] (setting [17]); 115 nM with HLA-B*15:01 [7] (setting [17]); ≥ 20000 nM with HLA-A*11:01 (setting [16]); ≥ 20000 nM with HLA-A*01:01 [8] (setting [16]). Further, the Kd was ≥ 20000 nM with HLA-B*40:01 (setting [16]); ≥ 20000 nM in the experiment with HLA-A*69:01 (setting [16]); ≥ 20000 nM with HLA-A*02:01 [9] (setting [16]); ≥ 20000 nM with HLA-A*31:01 (setting [16]); 10000 nM with HLA-B*07:02 (setting [17]); ≥ 20000 nM in the experiment with HLA-B*44:02 (setting [16]). The Kd was ≥ 20000 nM in the experiment with HLA-A*03:01 (setting [16]), 4280 nM in the experiment with HLA-A*24:03 (setting [17]) and ≥ 20000 nM with HLA-A*26:01 (setting [16]).
For the sequence FMMVLLIPEP, the Kd in the experiment with HLA-A*02:17 (setting [10]) came to 5730 nM; with HLA-A*02:06 (setting [18]), 124 nM; with HLA-A*02:01 [1] (setting [10]), 93.1 nM.
For the sequence WSFLEDRVY, the Kd with HLA-B*27:05 (setting [19]) is ≥ 20000 nM; with HLA-B*58:01 (setting [19]), 484 nM; with HLA-B*08:01 [2] (setting [19]), ≥ 20000 nM; with HLA-B*15:01 [7] (setting [19]) it was 42 nM; with HLA-A*11:01 (setting [19]) it was ≥ 20000 nM; with HLA-A*01:01 [8] (setting [19]) it was 2270 nM. The Kd with HLA-B*40:01 (setting [19]), with HLA-A*69:01 (setting [19]), with HLA-A*02:01 [9] (setting [19]), in the experiment with HLA-A*31:01 (setting [19]), with HLA-B*07:02 (setting [19]) and in the experiment with HLA-B*44:02 (setting [19]) was ≥ 20000 nM in each case. Further, the Kd with HLA-A*03:01 (setting [19]), with HLA-A*24:03 (setting [19]) and with HLA-A*26:01 (setting [19]) was ≥ 20000 nM throughout.
Regarding GLDVLTAKV, in the experiment with HLA-A*02:01 [1] (source organism: Homo sapiens), the Kd turned out to be 132 nM.
As to VLLKTALLIV, the Kd with HLA-A*02:17 (setting [10]) came to 2490 nM; with HLA-A*02:03 (setting [18]), 40.1 nM; with HLA-A*02:06 (setting [18]) it was 37 nM.
For the sequence ALYGSVPVL, in the experiment with HLA-A*02:01 [1] (source organism: Homo sapiens), the Kd was 8.1 nM.
For the sequence LLLLVAHYAI, the figures for the Kd with HLA-A*02:17 (setting [11]), with HLA-A*02:06 (setting [11]) and in the experiment with HLA-A*02:01 [1] (setting [11]) were 434 nM, 53.4 nM and 97.8 nM, respectively.
For TLLLLGLMIL, the Kd worked out at 890 nM in the experiment with HLA-B*08:01 [3] (setting [18]) and 2420 nM in the experiment with HLA-A*02:17 (setting [10]).
Turning to FAGKTVWFV, the Kd with HLA-A*02:17 (setting [15]) was found to be 293 nM; in the experiment with HLA-A*02:06 (setting [18]), 39.5 nM.
On to GLLTVCYVL, for which the Kd with HLA-A*02:17 (setting [11]) was 802 nM.
Regarding WMTTEDMLTV, the Kd with HLA-A*02:17 (setting [10]) was 2240 nM; with HLA-A*02:03 (setting [18]), 37.5 nM; in the experiment with HLA-A*02:06 (setting [18]), 8.59 nM; with HLA-A*02:01 [1] (setting [10]), 13.6 nM.
Take KTMAMVLSIV: the Kd with HLA-A*02:17 (setting [13]) was 2860 nM; with HLA-A*68:02 (setting [13]), 52.5 nM; in the experiment with HLA-A*02:03 (setting [13]), 1.18 nM; with HLA-A*02:06 (setting [13]), 1.96 nM; with HLA-A*02:01 [1] (setting [13]), 26.4 nM.
On to DTMRPTTVV, for which the Kd in the experiment with HLA-A*68:02 (setting [20]) was 1.38 nM; with HLA-A*02:03 (setting [20]), 4630 nM; with HLA-A*02:06 (setting [20]), 3040 nM; with HLA-A*02:01 [1] (setting [20]), ≥ 83300 nM; in the experiment with HLA-A*02:02 (setting [20]), ≥ 28900 nM.
Turning to LMMMLPATLA, the Kd with HLA-A*02:17 (setting [10]) came out at 2880 nM; with HLA-A*02:03 (setting [10]), 17.5 nM; with HLA-A*02:01 [1] (setting [10]), 13.5 nM.
Take QLIPCMDVV: the Kd with HLA-A*02:01 [1] (source organism: Triticum aestivum) was 147 nM.
For EMIQLQEEL, the Kd in the experiment with HLA-A*02:01 [1] (source organism: Homo sapiens) was determined as 3100 nM; with HLA-A*02:02 (source organism: Homo sapiens), 123 nM.
Turning to LLAGFMAYMI, the equilibrium dissociation constant (Kd) in the experiment with HLA-A*02:17 (setting [21]) stood at 45.7 nM; in the experiment with HLA-A*02:01 [1] (setting [21]) it was 7.04 nM.

The Kd is the constant that tells how readily two partners part at equilibrium.
